The values that follow come from US20040209808A1 (published 2004).

This assay deals with T1, HGPRBMY3 (human, UniProt Q9H1C0 1-372).
T1 construct: on CHO-NFAT/Galpha15 cells for the reporter assay; also called GPCR19; GPR92; not shown: its amino
Description: cell-based phage-display panning on CHO-K1 cells transfected with HGPRBMY3; sequencing of eluted phage. The protocol:
On the day of panning, growth medium was discarded and cells were washed with 10 ml PBS by allowing the buffer to flow over the cells. The PBS was removed and 10 ml Tris-EDTA detaching buffer (Gibco Cat. # 13150-016; no trypsin) was added for 2 min. Plates were tapped and/or pipetted up and down to detach cells. This was done quickly to minimize the exposure of the cells to this reagent. Cells were pelleted by centrifugation at 3K, and then washed with 20 ml PBS. Cells were resuspended cells in PBS with 2% milk blocking agent plus protease inhibitor (EDTA-free; Roche Cat. # 1 873 580). For each library, cell suspensions of ˜500 μl were used. Cells were blocked for 30-60 min with gentle rocking at room temperature. The integrin-coated wells were washed 3×in PBST, then blocked with 2% BSA in PBS for 30 min or more. To preadsorb against integrin, input phage was added to the integrin-coated wells, and incubated for 30 min or more.
At this stage, the blocked parental cells were divided into the required number of aliquots (500 μl aliquot/library). The phage supernatants were added from the integrin-preadsorption step. Preadsorption against the parental cells was carried out for 30 min or more with gentle rocking. The blocked transfected cells were divided into the required number of aliquots (500 μl aliquot per library). The transfected cells were pelleted, and the supernatant was discarded. The phage supernatants from the two preadsorption steps were added, and cells were incubated with gentle rocking for 2 h or more. Cells were washed 6-8× with PBST at 5 min intervals. Each wash was performed by gently pipetting the cells up and down, and cells were centrifuged at low speed. To recover binding phage from the washed cell pellets, 500 μl 6M urea, pH 3.0 was added for 15 min. This was neutralized with 10 μl 2 M Tris (not adjusted for pH). The phage in the eluate were titered and arnplified by standard procedures (NEB protocol for PhD phage libraries). In some cases, the eluate was viscous due to the presence of chromosomal DNA.
Standard procedures were used. Phage in eluates were infected into E. coli host strain ER2738 (New England Biolabs) for all M13KE-based libraries, and cells were plated for plaques. Colonies were grown in liquid medium and analyzed by standard sequencing procedures.

T1 sequence (Q9H1C0 whole entry): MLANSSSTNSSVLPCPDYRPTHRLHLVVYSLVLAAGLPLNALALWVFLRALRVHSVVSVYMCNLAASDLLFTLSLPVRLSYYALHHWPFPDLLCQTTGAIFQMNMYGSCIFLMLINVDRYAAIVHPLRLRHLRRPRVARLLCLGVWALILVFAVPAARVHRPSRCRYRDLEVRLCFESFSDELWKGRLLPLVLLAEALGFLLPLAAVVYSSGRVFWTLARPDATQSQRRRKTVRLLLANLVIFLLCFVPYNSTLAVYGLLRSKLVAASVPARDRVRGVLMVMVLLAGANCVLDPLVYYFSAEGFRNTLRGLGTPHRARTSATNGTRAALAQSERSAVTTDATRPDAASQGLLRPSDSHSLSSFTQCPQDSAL

With KLWILADNFTNR [SEQ ID NO 35], the binding result is “binds”.

As for TTPHRVWNLPLEAQQ [SEQ ID NO 46], the binding result was “binds”.

With VYSKVWLLPAGQ [SEQ ID NO 19], the binding result is given as “binds”.

For NAKLWQIPAIPH [SEQ ID NO 42], the binding result is on record as “binds”.

With KVWSLDISAPQH [SEQ ID NO 23], the binding result was “binds”.

Take HLKVWEVRSPGP [SEQ ID NO 20]: the binding result was “binds”.

In the case of TGQTKIWYPHST [SEQ ID NO 18], the binding result is recorded as “binds”.

Consider FPHKLWVLPVKT [SEQ ID NO 37], for which the binding result is given as “binds”.

With ADVLHATPSEKVWLL [SEQ ID NO 24], the binding result is “binds”.

Turning to NAKVWTVPSKPP [SEQ ID NO 21], the binding result is given as “binds”.

Regarding KLWDITAPLPKP [SEQ ID NO 41], the binding result is recorded as “binds”.

On to KLWIPHTSQPFL [SEQ ID NO 40], for which the binding result was “binds”.

Consider KVVDSNHKVWLVSQT [SEQ ID NO 25], for which the binding result was “binds”.

Consider TSTPHRVWQLPV [SEQ ID NO 45], for which the binding result was “binds”.

As for NHDNTKKVWILA [SEQ ID NO 26], the binding result is “binds”.

As to KLWVPQNRPELV [SEQ ID NO 43], the binding result was “binds”.

Consider INSPHELKKLWLLPP [SEQ ID NO 36], for which the binding result was “binds”.

For KLWTIPSNDYPP [SEQ ID NO 38], the binding result was “binds”.

B1: SEQ ID NO 17 (peptide)
peptide: LEAKIWVVPAPS
notes: Selected from random M13KE phage-display libraries
In the case of B1, the binding result is “binds”.

Regarding KVWIPTSTWLQT [SEQ ID NO 22], the binding result was “binds”.
